Measured values published in the supplement of paper PMC9170038.

The sequences below were run on MS2 coat protein (assay: apparent KD of MS2 coat protein; higher = weaker reporter binding). Details: Eterna round: R107; input ligand: arginine 13.2 mM.
Description: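 RNA-MaP round R107: designed RNA switches with theophylline, tryptophan, arginine or FMN aptamers are transcribed on-chip within common flanks. They are titrated with SNAP-549-labelled MS2 coat protein in RNA-MaP buffer (100 mM Tris pH 7.5, 80 mM KCl, 4 mM MgCl2), without ligand or with the indicated ligand. Median apparent KD per design.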

**Q.** How did the “apparent KD of MS2 coat protein” value turn out when “AGCUCGCAUCCUCAAGCGUCAAAGACGCGUCGAGGACCGGUACGGCCGCCACUCGACAAGAGGAUCACCCUUGUCUAAGCGAGCA [TrypAX 4 #SwitchBubble #AlternativeMS2 #MS2Late #CuTurnoff]” was run?
**A.** Its value is 73.3 nM.

**Q.** Which “apparent KD of MS2 coat protein” value does the source give for “UUGGUACGACAGCUCAUAUAAGCAUGUGAUACCAGACUGGAAACAGUCCCUUGGCAGCACUUUACAUGAGGAUCACCCAUGUCGG [EThA NP+V+V2 #3 +-Same Structure]” here?
**A.** Its value is 76.6 nM.

Same assay, conditions: Eterna round: R107; input ligand: none

**Q.** Which “apparent KD of MS2 coat protein” value does the source give for “UGUUUUUAUCGAAGGAGCGCCGCAUGAGGAUCACCCAUGCACAUGAGGAUCACCCAUGUCUGGCAGGUAGGUCGCGAUCAAUGGG [Same State Arginine B GF 11]” here?
**A.** Its value is 41.9 nM.

**Q.** How did the “apparent KD of MS2 coat protein” value turn out when “GCUGCCAUACGAAGGAGCGCUGUUGCAAUGAGGCGAACAUGAGGAUCACCCAUGUGGCAAAAGCAGGUAGGUCGCGUAUGGCAGC [EAB #17]” was run?
**A.** Its value is 20.5 nM.

**Q.** With “AACAUGAGGAUCACCCAUGUUGUAAGGGAAGGAGCGCCUAAUCAGGCAGGUAGGUCGCCCAACAUGAGGAUCACCCAUGUUGUAU [Exclusion Arginine A 2]” as the sequence, how does the “apparent KD of MS2 coat protein” value read?
**A.** Its value is 75.3 nM.

**Q.** With “CUCCCGUGGUCGGCCGCCACUGGAGGCCUCGCGCGACAUGAGGAUCACCCAUGUUGGCCCGGCCUCAGGACCGGGAUCGCGUGAG [#1 Same State - Tryptophan B Attempt #7 (HarryS)]” as the sequence, how does the “apparent KD of MS2 coat protein” value read?
**A.** The value was 13.7 nM.

**Q.** “UUGUUGUUUGGAAGGAGCGUGGAUGAGUGUGGACAUGAGGAUCACCCAUGUUGGAUGAUACCGCAGGUAGGUCGCCGGGUGGUGG [11.aD]” was tested. Which “apparent KD of MS2 coat protein” value did it give?
**A.** The value was 164 nM.

**Q.** For “GCUGCUUUGGGAAGGAGCGCUGCGGUAUUGUGGCGGACAUGAGGAUCACCCAUGUGCCUGCAGCAGGUAGGUCGCUUAGGGCAGC [EAP NP+V+V2 #17]”, which “apparent KD of MS2 coat protein” value is on record?
**A.** Its value is 68.8 nM.

**Q.** How did the “apparent KD of MS2 coat protein” value turn out when “AAUAUAUAGACGGCCGCCACUGGAAUUAAUACAUGAGGAUCACCCAUGUGAAGAGGAUAAUAACACAGGACCGGGUCUUCAUGUA [SS Tryp B Tesla 1.2]” was run?
**A.** Its value is 37.4 nM.

**Q.** For “CCGCACAUGAGGAUCACCCAUGUCAGGGAUACCAGCCCAGACAUGGGCCCUUGGCAGCUUUGUAGCUGACGAAAGUCAGCAGCGG [Omei Theo A SS A v2]”, which “apparent KD of MS2 coat protein” value is on record?
**A.** Its value is 33.6 nM.

**Q.** With “AAGAACCAGACGGCCGCCACUGGCCAGACAGGGUUCAUGGAAACAUGAGGAUCACCCAUGUCUUCCAGGACCGGGUCUGAAGAGG [Esbiisin]” as the sequence, how does the “apparent KD of MS2 coat protein” value read?
**A.** Its value is 8.56 nM.

**Q.** For “UGUAUGUGAUCUGAUACCAGCGAUGAUAACCUGAGGAUCACCCUGGUAUGGCGAAAGCCUCGCCCUUGGCAGCAGAUCGCAUACU”, which “apparent KD of MS2 coat protein” value is on record?
**A.** The value was 747 nM.

**Q.** “UGGCAAGAGGGAAGGAGCGUCAGCUGAGUCACAUGAGGAUCACCCAUGUCGCACAUAGUGUGACAGGUAGGUCGCCCUCUGCCGU [Vesosocera]” was tested. Which “apparent KD of MS2 coat protein” value did it give?
**A.** Its value is 122 nM.

**Q.** “GUUAUAGACGGAAGGAGCGCGGCCACAUGAGGAUCACCCAUGUAUUGUGUUGGUAAUAGGUCGCAGGUAGGUCGCCGAUUAAUGA [Same State - Arginine B / A]” was tested. Which “apparent KD of MS2 coat protein” value did it give?
**A.** Its value is 55.1 nM.

**Q.** Which “apparent KD of MS2 coat protein” value does the source give for “UCGCCCAGGUAGGCUUAAUGGGAUAUGGAAGGAGCGCUGAUGCCAGCAGGUAGGUCGCCAACGGACAUGAGGAUCACCCAUGUAC [Same State - Arginine A (Freestyle 4)]” here?
**A.** Its value is 18 nM.

**Q.** With “UUAAUCUUAUAUGAAAACAUAUAAGCAGAAGGAGCGUGAUAAAACACAGGUAGGUCGCUGAAGGGAACAUGAGGAUCACCCAUGU [AstrosSSArgA#4]” as the sequence, how does the “apparent KD of MS2 coat protein” value read?
**A.** The value was 22.4 nM.

**Q.** Which “apparent KD of MS2 coat protein” value does the source give for “UAUCCACAUGAGGAUCACCCAUGUAGGGAAGGAGCGGUGAUUUCACCAGGUAGGUCGCCUUACUGAGGAGAACCGGUGGAAUCGU [Exclusion - Arginine A (Freestyle 30)]” here?
**A.** Its value is 25.9 nM.

**Q.** With “AGCUCGCAUCCUCAAGCGUCAAAGACGCGUCGAGGACCGGUACGGCCGCCACUCGACAAGAGGAUCACCCUUGUCUAAGCGAGCA [TrypAX 4 #SwitchBubble #AlternativeMS2 #MS2Late #CuTurnoff]” as the sequence, how does the “apparent KD of MS2 coat protein” value read?
**A.** The value was 195 nM.

Same assay, conditions: Eterna round: R107; input ligand: theophylline 20 uM

**Q.** For “AAGGACAUGAGGAUCACCCAUGUAGAGGAGCGAGGACCGGUACGGCCGCCACUCGGUGACAUUCGAUAAUGCCGAAUAAGACAUC [theeternabot_sameState_MS2_Trp_A_47]”, which “apparent KD of MS2 coat protein” value is on record?
**A.** Its value is 33.2 nM.

**Q.** For “UGUUUUUAUCGAAGGAGCGCCGCAUGAGGAUCACCCAUGCACAUGAGGAUCACCCAUGUCUGGCAGGUAGGUCGCGAUCAAUGGG [Same State Arginine B GF 11]”, which “apparent KD of MS2 coat protein” value is on record?
**A.** Its value is 48.7 nM.

**Q.** With “GCUGCCAUACGAAGGAGCGCUGUUGCAAUGAGGCGAACAUGAGGAUCACCCAUGUGGCAAAAGCAGGUAGGUCGCGUAUGGCAGC [EAB #17]” as the sequence, how does the “apparent KD of MS2 coat protein” value read?
**A.** Its value is 29.3 nM.

**Q.** Which “apparent KD of MS2 coat protein” value does the source give for “AUGACUAACAAAGAAGAUAAAAUGGGUGAACGAGGACCGGUACGGCCGCCACUCGGACAUGAGGAUCACCCAUGUCCAUGUGCAA [#23 Exclusion Tryptophan A]” here?
**A.** Its value is 21.7 nM.

**Q.** For “ACGUAGAAGUCGGCCGCCACUGAUUUCAUGUUCAACAUGAGGAUCACCCAUGUACCUUAUGUUAACAGGACCGGGACGUAUACGA [JR_SSTryptoB_Sub001]”, which “apparent KD of MS2 coat protein” value is on record?
**A.** Its value is 303 nM.

**Q.** Which “apparent KD of MS2 coat protein” value does the source give for “AACAUGAGGAUCACCCAUGUUGUAAGGGAAGGAGCGCCUAAUCAGGCAGGUAGGUCGCCCAACAUGAGGAUCACCCAUGUUGUAU [Exclusion Arginine A 2]” here?
**A.** The value was 89.2 nM.

**Q.** With “CAAAUAGACCACGAUACCAGAACACAAGGAGUAAUAUCAAACAUGAGGAUCACCCAUGUCUUCCCUUGGCAGCGUAGCACGGAGU [theeternabot_exclusion_MS2_Theo_B_23]” as the sequence, how does the “apparent KD of MS2 coat protein” value read?
**A.** The value was 15.2 nM.

**Q.** With “CUCCCGUGGUCGGCCGCCACUGGAGGCCUCGCGCGACAUGAGGAUCACCCAUGUUGGCCCGGCCUCAGGACCGGGAUCGCGUGAG [#1 Same State - Tryptophan B Attempt #7 (HarryS)]” as the sequence, how does the “apparent KD of MS2 coat protein” value read?
**A.** The value was 17.9 nM.

**Q.** With “CGAUAUAAGACGGCCGCCACUAUUAAGUAACAAAAUAAACAUGAGGAUCACCCAUGUACAUGGGAUAGGACCGGGUCCAAUAACG [A1]” as the sequence, how does the “apparent KD of MS2 coat protein” value read?
**A.** Its value is 163 nM.

**Q.** “UGACAUUGCUGCGAUACCAGACAUGAGGAUCACCCAUGUACCAAGGUACCCGAAAGGAAUGUCCCUUGGCAGCGCAGCAAUGUCU [MAT - Exclusion Theophlline B - Mod of Eli - D18]” was tested. Which “apparent KD of MS2 coat protein” value did it give?
**A.** The value was 11.6 nM.

**Q.** “GGGCGCGUGGACUGGCGUGCUCCGCUCCGUCGAGGACCGGUACGGCCGCCACUCGACAUGAGGAUCACCCAUGUGUGAGCUCGCG [#1 Exclusion - Tryptophan A Attempt #17 (HarryS)]” was tested. Which “apparent KD of MS2 coat protein” value did it give?
**A.** The value was 229 nM.

**Q.** Which “apparent KD of MS2 coat protein” value does the source give for “UUAUAAGUACCGGUCCUCAGAUCCUCAUGACGAGGACCGGUACGGCCGCCACUCGAAACAUGAGGAUCACCCAUGUAAUAAUAUC [Brourdmod09]” here?
**A.** The value was 56.6 nM.

**Q.** With “UUUGACGGCGAUCUGGGUUUACCAGAUCGGCGAGGACCGGUACGGCCGCCACUCGUGUUUCUUUGACAUGAGGAUCACCCAUGUA [whbob_SS_trypto A_f2]” as the sequence, how does the “apparent KD of MS2 coat protein” value read?
**A.** The value was 57.3 nM.

**Q.** Which “apparent KD of MS2 coat protein” value does the source give for “GAUGAACUAUUCGAUACCAGACCACAUGAGGAUCACCCAUGUGUGUUUCGUCCUUAGCCGGUCCCUUGGCAGCGAAUAGUUUAUC [#28 Exclusion-TheophyllineB]” here?
**A.** Its value is 30.3 nM.

**Q.** With “AUCCUUAAUAGGGUAAAUGGAUAAAGUGAUACCAGUCAAAUACAAGACCCUUGGCAGCACAAGGACAUGAGGAUCACCCAUGUCA [Same State Theophylline A GF21]” as the sequence, how does the “apparent KD of MS2 coat protein” value read?
**A.** The value was 22 nM.

**Q.** With “AUCGUACCUGAGGAUACCAGCAUGUGAUCAUAACAUGAGGAUCACCCAUGUAAUCAGUGAUGCCCUUGGCAGCUUGAUCGGUACA [Same State - Theophylline B (Freestyle 11)]” as the sequence, how does the “apparent KD of MS2 coat protein” value read?
**A.** Its value is 83.6 nM.

**Q.** “UUGUUGUUUGGAAGGAGCGUGGAUGAGUGUGGACAUGAGGAUCACCCAUGUUGGAUGAUACCGCAGGUAGGUCGCCGGGUGGUGG [11.aD]” was tested. Which “apparent KD of MS2 coat protein” value did it give?
**A.** The value was 162 nM.

**Q.** Which “apparent KD of MS2 coat protein” value does the source give for “AUGGACGACGAUCUGGGAAAACCAGAUCGACGAGGACCGGUACGGCCGCCACUCGUGUUUAUUUAACAUGAGGAUCACCCAUGUA [#13 Tryptophan A Same State]” here?
**A.** Its value is 55.7 nM.
